# Numbering of substitutions follows the chain as printed.
# T1: interferon-alpha receptor (type I interferon receptor comprising receptor subunits IFNAR-2 and IFNAR-1) (human, UniProt P17181 28-557; P48551 27-515)
# T1 sequence (looked up) 1: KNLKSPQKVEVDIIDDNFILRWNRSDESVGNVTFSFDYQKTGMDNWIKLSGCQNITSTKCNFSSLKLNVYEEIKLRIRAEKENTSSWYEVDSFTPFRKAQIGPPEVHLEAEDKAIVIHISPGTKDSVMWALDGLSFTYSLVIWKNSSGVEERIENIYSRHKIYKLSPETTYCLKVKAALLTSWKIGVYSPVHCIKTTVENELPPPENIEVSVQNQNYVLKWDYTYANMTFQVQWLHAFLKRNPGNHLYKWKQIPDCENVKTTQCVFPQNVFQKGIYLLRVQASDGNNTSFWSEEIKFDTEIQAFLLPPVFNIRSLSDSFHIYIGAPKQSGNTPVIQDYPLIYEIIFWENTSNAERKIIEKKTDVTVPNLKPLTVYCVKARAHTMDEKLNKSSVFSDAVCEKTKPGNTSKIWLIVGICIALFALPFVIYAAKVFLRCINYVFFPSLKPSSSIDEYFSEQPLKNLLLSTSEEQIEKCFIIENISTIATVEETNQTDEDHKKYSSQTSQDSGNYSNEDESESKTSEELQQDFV
# T1 sequence (looked up) 2: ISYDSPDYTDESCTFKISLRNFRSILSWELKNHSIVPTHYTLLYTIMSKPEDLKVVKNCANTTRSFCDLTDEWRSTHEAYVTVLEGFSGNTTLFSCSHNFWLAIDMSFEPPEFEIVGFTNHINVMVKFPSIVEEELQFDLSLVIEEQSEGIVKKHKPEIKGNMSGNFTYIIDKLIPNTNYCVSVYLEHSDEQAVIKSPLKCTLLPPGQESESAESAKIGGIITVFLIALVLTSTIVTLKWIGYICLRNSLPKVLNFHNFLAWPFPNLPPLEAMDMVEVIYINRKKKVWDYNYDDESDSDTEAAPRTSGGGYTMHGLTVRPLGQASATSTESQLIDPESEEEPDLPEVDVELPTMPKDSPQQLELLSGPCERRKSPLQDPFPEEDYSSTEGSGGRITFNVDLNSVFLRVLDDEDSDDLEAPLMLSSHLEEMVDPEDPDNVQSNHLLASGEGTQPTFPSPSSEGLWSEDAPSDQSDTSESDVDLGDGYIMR
# B1: B9x14EC4 (ligand)
# chain: CDLPQTHSLGHRRTMMLLAQMRRISLFSCLKDRHDFRFPQEEFDGNHFQKVQAIFLFYEMMQQTFNLFSTKDSSAAWDETLLEKFYIELFQQMNDLEACVMQEVGVEETPLMNVDSILAVRKYFQRITLYLTEKKYSPCAWEVVRAEIMRSFSFSTNLQESLRSKE
# B2: 14epi18 (ligand)
# chain: B1 chain with F48A
# B3: 14epi33 (ligand)
# chain: B1 chain with Q52P, F55S, N113K, V114E
# B4: 14epi34 (ligand)
# chain: B1 chain with Q52P, F55S, V114E
# B5: 14epi32 (ligand)
# chain: B1 chain with F48L, Q52P, F55S, N113K, V114E
# B6: 14epi25 (ligand)
# chain: B1 chain with F48L, F55S, L111A
# B7: 14epi20 (ligand)
# chain: B1 chain with F48A, F55S
# B8: 14epi21 (ligand)
# chain: B1 chain with F55A
# B9: 14epi26 (ligand)
# chain: B1 chain with F48L, F55S, N113K, V114E
# B10: 14epi22 (ligand)
# chain: B1 chain with F55S
# B11: 14epi29 (ligand)
# chain: B1 chain with F48A, F55S, F65A
# B12: 14epi15 (ligand)
# chain: B1 chain with F48L
# B13: 14epi17 (ligand)
# chain: B1 chain with F48L, F55S
# B14: 14epi31 (ligand)
# chain: B1 chain with F48A, F55A, N113K, V114E
# B15: 14epi16 (ligand)
# chain: B1 chain with F48L, F55A
# B16: 14epi19 (ligand)
# chain: B1 chain with F48A, F55A
# B17: MonoPEGylated 14epi18 (ligand)
# chain: MCDLPQTHSLGHRRTMMLLAQMRRISLFSCLKDRHDFRFPQEEFDGNHAQKVQAIFLFYEMMQQTFNLFSTKDSSAAWDETLLEKFYIELFQQMNDLEACVMQEVGVEETPLMNVDSILAVRKYFQRITLYLTEKKYSPCAWEVVRAEIMRSFSFSTNLQESLRSKE
# modifications: single 40 kDa branched PEG (mPEG2-NHS) on a lysine; positional isomers predominantly monoPEGylated at Lys122 and Lys135
# B18: 25epi19 (ligand)
# chain: CDLPQTHSLSNRRTLMLMAQMRRISPFSCLKDRHDFGFPEEEFDGHQAQKVQAIFLLYELIQQTFNLFSTKDSSAAWDETLLEKFYIELFQQMNNLEACVIQEVGVEEIALMNVDSILAVRKYFRRITLYLTEKKYSPCAWEVVRAEIMRSFSFSTNLQESLRSKE
# B19: MonoPEGylated 25epi19 (ligand)
# chain: MCDLPQTHSLSNRRTLMLMAQMRRISPFSCLKDRHDFGFPEEEFDGHQAQKVQAIFLLYELIQQTFNLFSTKDSSAAWDETLLEKFYIELFQQMNNLEACVIQEVGVEEIALMNVDSILAVRKYFRRITLYLTEKKYSPCAWEVVRAEIMRSFSFSTNLQESLRSKE
# modifications: single 40 kDa branched PEG (mPEG2-NHS) on a lysine; positional isomers predominantly monoPEGylated at Lys31, Lys122 and Lys135
# Columns and labels:
# Test in all cases: cell-based or functional assay
# [1] = biological target: T1, interferon-alpha receptor (type I …)
# [2] = biological target: T1, interferon-alpha receptor (type I …); remark: listed apart in the source
# [3] = biological target: T1, interferon-alpha receptor (type I …); remark: listed apart in the source
Binder,HeLa/EMCV Antiviral activity relative to huIFN-alpha 2b [1] [fold],HuH7/EMCV Antiviral activity relative to huIFN-alpha 2b [1] [fold],"TH1 activity (IFN-gamma in supernatants of naive T cells), Fold over IFN-alpha 2a [2] [fold]","HeLa-EMCV antiviral assay, antiviral activity relative to monoPEGylated IFN-alpha 2a [3] [fold]"
B1,> 8,> 8,–,–
B2,> 8,> 8,> 30,–
B3,> 8,> 8,–,–
B4,> 8,> 8,–,–
B5,> 8,> 8,–,–
B6,> 8,> 8,–,–
B7,> 8,> 8,–,–
B8,> 8,> 8,–,–
B9,> 8,–,–,–
B10,> 8,–,–,–
B11,> 8,–,–,–
B12,> 8,> 8,–,–
B13,> 8,> 8,–,–
B14,> 8,–,–,–
B15,> 8,> 8,–,–
B16,> 8,> 8,–,–
B17,–,–,–,> 10
B18,> 8,> 8,> 30,–
B19,–,–,–,> 10

# From patent US20050266465A1 (MAXYGEN, published 2005)
